target: T1, N-Ras.mant-GMPPNP (Homo sapiens, UniProt P01111); test: Fluorescence anisotropy titration of PI3Kγ 144-1102 into N-Ras.mant-GMPPNP; type: binding; conditions: mutants in the 144-1102 construct, FIG. 2A
T1 construct: fluorescence anisotropy of full length, unmodified N-Ras.mant-GMPPNP
Description: Mant-nucleotides were synthesised as described previously (Jameson and Eccleston, 1997). N-Ras and H-Ras mutants were loaded with mant-GMPPNP as in (Moore et al., 1993), gel filtered into running buffer (20 mM Tris pH 7.5, 2 mM MgCl2, 1 mM DTT), and frozen at −80° C. The concentration of Ras.mant-GMPPNP was determined by measuring the absorbance of the mant group at […] with ε=5700 M^−1 cm^−1 (Hiratsuka, 1983). For binding assays, the 144-1102 human PI3Kγ was titrated into a 1 μM solution of fill length, unmodified N-Ras.mant-GMPPNP. Data were collected with SLM 8000 S and ISS PC1 spectrofluorimeters, set up in the T-format and L-format, respectively, with prism polarizers. All measurements were taken at 20° C. with a λex of 366 nm. Both emission PMTs were fitted with 399 nm cutoff filters. Five measurements of each data point were obtained and averaged. Data were fitted to the binding equation.

T1 sequence (P01111 whole entry): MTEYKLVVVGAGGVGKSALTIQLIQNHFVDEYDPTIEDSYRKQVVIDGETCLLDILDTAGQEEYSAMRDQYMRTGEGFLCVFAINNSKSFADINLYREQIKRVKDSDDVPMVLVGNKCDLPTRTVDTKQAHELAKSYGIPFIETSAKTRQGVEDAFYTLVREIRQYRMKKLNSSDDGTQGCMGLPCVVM

effect of PI3Kγ RBD mutation on binding to Ras | Molecule
eliminate binding | K251A: PI3Kγ RBD mutant (protein, UniProt P48736 1-1102, looked up, variant K251A) Phosphatidylinositol …: MELENYKQPVVLREDNCRRRRRMKPRSAAASLSSMELIPIEFVLPTSQRKCKSPETALLHVAGHGNVEQMKAQVWLRALETSVAADFYHRLGPHHFLLLYQKKGQWYEIYDKYQVVQTLDCLRYWKATHRSPGQIHLVQRHPPSEESQAFQRQLTALIGYDVTDVSNVHDDELEFTRRGLVTPRMAEVASRDPKLYAMHPWVTSKPLPEYLWKKIANNCIFIVIHRSTTSQTIKVSPDDTPGAILQSFFTAMAKKKSLMDIPESQSEQDFVLRVCGRDEYLVGETPIKNFQWVRHCLKNGEEIHVVLDTPPDPALDEVRKEEWPLVDDCTGVTGYHEQLTIHGKDHESVFTVSLWDCDRKFRVKIRGIDIPVLPRNTDLTVFVEANIQHGQQVLCQRRTSPKPFTEEVLWNVWLEFSIKIKDLPKGALLNLQIYCGKAPALSSKASAESPSSESKGKVQLLYYVNLLLIDHRFLLRRGEYVLHMWQISGKGEDQGSFNADKLTSATNPDKENSMSISILLDNYCHPIALPKHQPTPDPEGDRVRAEMPNQLRKQLEAIIATDPLNPLTAEDKELLWHFRYESLKHPKAYPKLFSSVKWGQQEIVAKTYQLLARREVWDQSALDVGLTMQLLDCNFSDENVRAIAVQKLESLEDDDVLHYLLQLVQAVKFEPYHDSALARFLLKRGLRNKRIGHFLFWFLRSEIAQSRHYQQRFAVILEAYLRGCGTAMLHDFTQQVQVIEMLQKVTLDIKSLSAEKYDVSSQVISQLKQKLENLQNSQLPESFRVPYDPGLKAGALAIEKCKVMASKKKPLWLEFKCADPTALSNETIGIIFKHGDDLRQDMLILQILRIMESIWETESLDLCLLPYGCISTGDKIGMIEIVKDATTIAKIQQSTVGNTGAFKDEVLNHWLKEKSPTEEKFQAAVERFVYSCAGYCVATFVLGIGDRHNDNIMITETGNLFHIDFGHILGNYKSFLGINKERVPFVLTPDFLFVMGTSGKKTSPHFQKFQDICVKAYLALRHHTNLLIILFSMMLMTGMPQLTSKEDIEYIRDALTVGKNEEDAKKYFLDQIEVCRDKGWTVQFNWFLHLVLGIKQGEKHSA
eliminate binding | T232D: PI3Kγ RBD mutant (protein, UniProt P48736 1-1102, looked up, variant T232D) Phosphatidylinositol …: MELENYKQPVVLREDNCRRRRRMKPRSAAASLSSMELIPIEFVLPTSQRKCKSPETALLHVAGHGNVEQMKAQVWLRALETSVAADFYHRLGPHHFLLLYQKKGQWYEIYDKYQVVQTLDCLRYWKATHRSPGQIHLVQRHPPSEESQAFQRQLTALIGYDVTDVSNVHDDELEFTRRGLVTPRMAEVASRDPKLYAMHPWVTSKPLPEYLWKKIANNCIFIVIHRSTTSQDIKVSPDDTPGAILQSFFTKMAKKKSLMDIPESQSEQDFVLRVCGRDEYLVGETPIKNFQWVRHCLKNGEEIHVVLDTPPDPALDEVRKEEWPLVDDCTGVTGYHEQLTIHGKDHESVFTVSLWDCDRKFRVKIRGIDIPVLPRNTDLTVFVEANIQHGQQVLCQRRTSPKPFTEEVLWNVWLEFSIKIKDLPKGALLNLQIYCGKAPALSSKASAESPSSESKGKVQLLYYVNLLLIDHRFLLRRGEYVLHMWQISGKGEDQGSFNADKLTSATNPDKENSMSISILLDNYCHPIALPKHQPTPDPEGDRVRAEMPNQLRKQLEAIIATDPLNPLTAEDKELLWHFRYESLKHPKAYPKLFSSVKWGQQEIVAKTYQLLARREVWDQSALDVGLTMQLLDCNFSDENVRAIAVQKLESLEDDDVLHYLLQLVQAVKFEPYHDSALARFLLKRGLRNKRIGHFLFWFLRSEIAQSRHYQQRFAVILEAYLRGCGTAMLHDFTQQVQVIEMLQKVTLDIKSLSAEKYDVSSQVISQLKQKLENLQNSQLPESFRVPYDPGLKAGALAIEKCKVMASKKKPLWLEFKCADPTALSNETIGIIFKHGDDLRQDMLILQILRIMESIWETESLDLCLLPYGCISTGDKIGMIEIVKDATTIAKIQQSTVGNTGAFKDEVLNHWLKEKSPTEEKFQAAVERFVYSCAGYCVATFVLGIGDRHNDNIMITETGNLFHIDFGHILGNYKSFLGINKERVPFVLTPDFLFVMGTSGKKTSPHFQKFQDICVKAYLALRHHTNLLIILFSMMLMTGMPQLTSKEDIEYIRDALTVGKNEEDAKKYFLDQIEVCRDKGWTVQFNWFLHLVLGIKQGEKHSA
probably increases the Kd | K234A: PI3Kγ mutant of a switch II contact residue (protein, UniProt P48736 1-1102, looked up, variant K234A) Phosphatidylinositol …: MELENYKQPVVLREDNCRRRRRMKPRSAAASLSSMELIPIEFVLPTSQRKCKSPETALLHVAGHGNVEQMKAQVWLRALETSVAADFYHRLGPHHFLLLYQKKGQWYEIYDKYQVVQTLDCLRYWKATHRSPGQIHLVQRHPPSEESQAFQRQLTALIGYDVTDVSNVHDDELEFTRRGLVTPRMAEVASRDPKLYAMHPWVTSKPLPEYLWKKIANNCIFIVIHRSTTSQTIAVSPDDTPGAILQSFFTKMAKKKSLMDIPESQSEQDFVLRVCGRDEYLVGETPIKNFQWVRHCLKNGEEIHVVLDTPPDPALDEVRKEEWPLVDDCTGVTGYHEQLTIHGKDHESVFTVSLWDCDRKFRVKIRGIDIPVLPRNTDLTVFVEANIQHGQQVLCQRRTSPKPFTEEVLWNVWLEFSIKIKDLPKGALLNLQIYCGKAPALSSKASAESPSSESKGKVQLLYYVNLLLIDHRFLLRRGEYVLHMWQISGKGEDQGSFNADKLTSATNPDKENSMSISILLDNYCHPIALPKHQPTPDPEGDRVRAEMPNQLRKQLEAIIATDPLNPLTAEDKELLWHFRYESLKHPKAYPKLFSSVKWGQQEIVAKTYQLLARREVWDQSALDVGLTMQLLDCNFSDENVRAIAVQKLESLEDDDVLHYLLQLVQAVKFEPYHDSALARFLLKRGLRNKRIGHFLFWFLRSEIAQSRHYQQRFAVILEAYLRGCGTAMLHDFTQQVQVIEMLQKVTLDIKSLSAEKYDVSSQVISQLKQKLENLQNSQLPESFRVPYDPGLKAGALAIEKCKVMASKKKPLWLEFKCADPTALSNETIGIIFKHGDDLRQDMLILQILRIMESIWETESLDLCLLPYGCISTGDKIGMIEIVKDATTIAKIQQSTVGNTGAFKDEVLNHWLKEKSPTEEKFQAAVERFVYSCAGYCVATFVLGIGDRHNDNIMITETGNLFHIDFGHILGNYKSFLGINKERVPFVLTPDFLFVMGTSGKKTSPHFQKFQDICVKAYLALRHHTNLLIILFSMMLMTGMPQLTSKEDIEYIRDALTVGKNEEDAKKYFLDQIEVCRDKGWTVQFNWFLHLVLGIKQGEKHSA

— US20040018957A1, “Crystal structure of a Ras-P13K complex” (priority 2000, published 2004)
